Results reported in article PMC12041195 (Nature Communications, 2025).

Biological target: trimeric HA protein of A/Victoria/361/2011 (H3N2) (Influenza A virus A/Victoria/361/2011 …, UniProt A0A097PF39, strain)
Assay: negative-stain electron microscopy

B1: IgM-F045-092 (antibody, V domains shown)
VH: EVQLVESGAEVKKPGSSVKVSCRASGTFYKYAINWVRQAPGQGLEWMGGIIPFFGTTNYAQKFQGRLTITADGSTNTAYMQLDSLRSEDTAVYYCAGPSITESHYCLDCAAKDYYYGLDVWGQGTTVTVSS
VL: not shown
binding result: binds
